Test results published in US20240067734A1 (Hoffmann-La Roche, published 2024).
Like-named read-outs stand apart in the source and are kept apart here. Values belong to the binder of their own block, whether it stands above or below them.

Legend:
[1] = molecular target: T1, human NKG2D expressed on cells (human, UniProt P26718 1-216); experiment: flow cytometry on NK92 cells, PE anti-human Fc secondary antibody
T1 construct: the cell type is named under assay; also called NKG2D on NK92 cells; HEK293T human NKG2D
T1 chain: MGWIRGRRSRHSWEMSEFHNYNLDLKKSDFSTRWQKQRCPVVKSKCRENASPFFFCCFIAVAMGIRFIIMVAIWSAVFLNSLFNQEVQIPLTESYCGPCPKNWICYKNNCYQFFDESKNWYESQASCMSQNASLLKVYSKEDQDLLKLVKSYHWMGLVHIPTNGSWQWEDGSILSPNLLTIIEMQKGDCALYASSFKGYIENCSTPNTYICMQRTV
Experimental: The anti-NKG2D antibodies P1AE4980, C26 and ADI27743 from Example 21 were tested for binding to NKG2D on NK92 cells.
Viability of NK92 cells was checked and cells were re-suspended and adjusted to a density of 1.5 mio cells/ml. 100 μl of this cell suspension (containing 0.15 mio cells) were seeded into a 96 well round bottom plate. The plate was centrifuged for 4 min at 400×g and the supernatant was removed. Then 40 μl of the diluted antibodies or FACS buffer were added to the cells and incubated for 30 min at 4° C. After the incubation the cells were washed twice with 150 μl FACS buffer per well. […] The cells were incubated for an additional 30 min at 4° C. To remove unbound antibody the cells were washed again twice with 150 μl per well FACS buffer. For the measurement, the cells were re-suspended in 150 μl FACS buffer. The fluorescence was measured using a BD flow cytometer.

[2] = molecular target: T1, human NKG2D expressed on cells; experiment: flow cytometry on NKG2D-positive NK92 cells, anti-human Fc secondary antibody
[3] = molecular target: T2, CEA expressed on LS180 tumor cells (human, UniProt P06731 35-685); experiment: flow cytometry on CEA-positive LS180 cells, anti-human Fc secondary antibody
T2 construct: whole, on cells; also called carcinoembryonic antigen; CEACAM5
T2 sequence (looked up): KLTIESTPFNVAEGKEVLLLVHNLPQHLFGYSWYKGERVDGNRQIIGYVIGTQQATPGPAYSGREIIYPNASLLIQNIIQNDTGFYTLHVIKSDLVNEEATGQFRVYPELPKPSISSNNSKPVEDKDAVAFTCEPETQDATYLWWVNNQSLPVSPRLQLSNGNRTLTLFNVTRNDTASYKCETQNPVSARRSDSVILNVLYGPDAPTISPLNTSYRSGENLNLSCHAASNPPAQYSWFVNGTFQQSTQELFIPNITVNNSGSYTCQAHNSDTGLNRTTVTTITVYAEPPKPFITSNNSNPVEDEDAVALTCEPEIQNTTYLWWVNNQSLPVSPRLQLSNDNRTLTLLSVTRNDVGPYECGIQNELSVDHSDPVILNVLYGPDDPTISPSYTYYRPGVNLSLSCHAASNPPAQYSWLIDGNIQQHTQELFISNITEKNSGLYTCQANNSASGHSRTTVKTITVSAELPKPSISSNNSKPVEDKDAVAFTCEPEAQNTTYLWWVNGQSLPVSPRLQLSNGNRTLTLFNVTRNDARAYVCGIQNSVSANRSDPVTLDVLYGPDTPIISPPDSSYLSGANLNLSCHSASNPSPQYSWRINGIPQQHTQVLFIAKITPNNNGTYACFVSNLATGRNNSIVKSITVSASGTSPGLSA
Experimental: (§1) Viability of NK92 cells or tumor cells (MKN-45, LS180) was checked and cells were re-suspended and adjusted to a density of 1 mio cells/ml. 100 μl per well of this cell suspension (containing 0.1 mio cells) were seeded into a 96 well round bottom plate. The plate was centrifuged for 4 min at 400×g and the supernatant was removed. Then 40 μl of the diluted antibodies or FACS buffer were added to the cells and incubated for 30 min at 4° C. After the incubation the cells were washed twice with 150 μl FACS buffer per well. […] The cells were incubated for an additional 30 min at 4° C. To remove unbound antibody, the cells were washed again twice with 150 μl per well FACS buffer. To fix the cells, 100 μl of FACS buffer containing 1% PFA were added to the wells. Before measuring, the cells were re-suspended in 150 μl FACS buffer. The fluorescence was measured using a BD flow cytometer.

[4] = molecular target: T2, CEA expressed on LS180 tumor cells; experiment: as above; remark: listed apart in the source
Experimental: as §1

[5] = molecular target: T1, human NKG2D expressed on cells; experiment: flow cytometry on NK92 cells, PE anti-human Fc secondary antibody

binding result [1]: binds
B1: anti-NKG2D antibody C26 IgG (PG LALA) (antibody, V domains shown)
VH: QVQLQQWGAGLLKPSETLSLTCAVYGGSFSGYYWSWIRQPPGKGLEWIGEIDHSGSTNYNPSLKSRVTISVDTSKNQFSLKLSSVTAADTAVYYCARARGPWSFDPWGQGTLVTVSS
VL: DIQMTQSPSTLSASVGDRVTITCRASQSISSWLAWYQQKPGKAPKLLIYKASSLESGVPSRFSGSGSGTEFTLTISSLQPDDFATYYCQQYGSFPITFGGGTKVEIKR
notes: Human IgG1 with PGLALA; variable domains from WO 2018/148445

binding result [1]: binds
B2: anti-NKG2D antibody ADI27743 IgG (PG LALA) (antibody, V domains shown)
VH: QVQLQQWGAGLLKPSETLSLTCAVYGGSFSGYYWSWIRQPPGKGLEWIGEIDHSGSTNYNPSLKSRVTISVDTSKNQFSLKLSSVTAADTAVYYCARARGPWSFDPWGQGTLVTVSS
VL: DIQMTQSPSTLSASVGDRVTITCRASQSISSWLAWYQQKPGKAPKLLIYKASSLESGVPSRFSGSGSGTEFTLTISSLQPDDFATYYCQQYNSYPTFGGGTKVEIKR
notes: as for B1

binding result [1]: binds
B3: anti-NKG2D antibody P1AE4980 (IgG) (antibody, V domains shown)
VH: QEQLVQSGAEVKKPGESLKISCKGSGFDFNTFWMTWVRQMPGKGLEWMGSIHGGSGSRDYSPSFQGQVTISADIDQSTAYLQWSSLKASDTAMYYCARPGYRSWSKTFDLWGQGTTVTVSS
VL: DIQMTQSPSSLSASVGDRVTITCRASQDISGALNWYQQKPGKAPNLLIYAASSLQSGVPSRFSGSGSGTDYTLTISSLQPEDFATYYCQQANSFPLTFGGGTKVEIK
notes: Tested as IgG beside C26 and ADI27743 (human IgG1 PGLALA)

EC50 (read off the curve) [2]: ~6 nM
B4: NKG2D×CEA bispecific antibody, anti-NKG2D 320 / anti-CEA B9, J format (bispecific antibody, V domains shown)
VH 1: EVQLLESGGGLVQPGGSLRLSCATSGFTFSDYAMSWVRQAPGKGLEWVSYNSFSVGSTDYADSVKGRFTISRDNSKNTLYLQMNSLRAEDTAVYYCSKHSGNYYTGPFHYWGQGTLVTVSS
VL 1: DIQLTQSPSFLSASVGDRVTITCRASQGISSYLAWYQQKPGKAPKLLIYAASSLESGVPSRFSGSGSGTDFTLTISSLQPEDFATYYCQQSYSTPITFGQGTRLEIK
VH 2: VQLVESGGGLVQPGRSLRLSCAASGFTVSSYWMHWVRQAPGKGLEWVGFIRNKANGGTTEYAASVKGRFTISRDDSKNTLYLQMNSLRAEDTAVYYCARDRGLRFYFDYWGQGTTVTVSS
VL 2: QAVLTQPASLSASPGASASLTCTLRRGINVGAYSIYWYQQKPGSPPQYLLRYKSDSDKQQGSGVSSRFSASKDASANAGILLISGLQSEDEADYYCMIWHSGASAVFGGGTKLTVL
notes: also called format J (320); tetravalent construct J

EC50 (read off the curve) [3]: ~2 nM
EC50 (read off the curve) [4]: ~2 nM
B5: anti-CEA antibody B9 (IgG) (antibody, V domains shown)
VH: VQLVESGGGLVQPGRSLRLSCAASGFTVSSYWMHWVRQAPGKGLEWVGFIRNKANGGTTEYAASVKGRFTISRDDSKNTLYLQMNSLRAEDTAVYYCARDRGLRFYFDYWGQGTTVTVSS
VL: QAVLTQPASLSASPGASASLTCTLRRGINVGAYSIYWYQQKPGSPPQYLLRYKSDSDKQQGSGVSSRFSASKDASANAGILLISGLQSEDEADYYCMIWHSGASAVFGGGTKLTVL
notes: IgG

EC50 (read off the curve) [3]: ~10 nM
B6: NKG2D×CEA bispecific antibody, anti-NKG2D 320 / anti-CEA B9, L format (bispecific antibody, V domains shown)
VH 1: EVQLLESGGGLVQPGGSLRLSCATSGFTFSDYAMSWVRQAPGKGLEWVSYNSFSVGSTDYADSVKGRFTISRDNSKNTLYLQMNSLRAEDTAVYYCSKHSGNYYTGPFHYWGQGTLVTVSS
VL 1: DIQLTQSPSFLSASVGDRVTITCRASQGISSYLAWYQQKPGKAPKLLIYAASSLESGVPSRFSGSGSGTDFTLTISSLQPEDFATYYCQQSYSTPITFGQGTRLEIK
VH 2: VQLVESGGGLVQPGRSLRLSCAASGFTVSSYWMHWVRQAPGKGLEWVGFIRNKANGGTTEYAASVKGRFTISRDDSKNTLYLQMNSLRAEDTAVYYCARDRGLRFYFDYWGQGTTVTVSS
VL 2: QAVLTQPASLSASPGASASLTCTLRRGINVGAYSIYWYQQKPGSPPQYLLRYKSDSDKQQGSGVSSRFSASKDASANAGILLISGLQSEDEADYYCMIWHSGASAVFGGGTKLTVL
notes: also called format L (320)

EC50 (read off the curve) [2]: ~10 nM
B7: NKG2D×CEA bispecific antibody, anti-NKG2D 320 / anti-CEA B9, I format (bispecific antibody, V domains shown)
VH 1: EVQLLESGGGLVQPGGSLRLSCATSGFTFSDYAMSWVRQAPGKGLEWVSYNSFSVGSTDYADSVKGRFTISRDNSKNTLYLQMNSLRAEDTAVYYCSKHSGNYYTGPFHYWGQGTLVTVSS
VL 1: DIQLTQSPSFLSASVGDRVTITCRASQGISSYLAWYQQKPGKAPKLLIYAASSLESGVPSRFSGSGSGTDFTLTISSLQPEDFATYYCQQSYSTPITFGQGTRLEIK
VH 2: VQLVESGGGLVQPGRSLRLSCAASGFTVSSYWMHWVRQAPGKGLEWVGFIRNKANGGTTEYAASVKGRFTISRDDSKNTLYLQMNSLRAEDTAVYYCARDRGLRFYFDYWGQGTTVTVSS
VL 2: QAVLTQPASLSASPGASASLTCTLRRGINVGAYSIYWYQQKPGSPPQYLLRYKSDSDKQQGSGVSSRFSASKDASANAGILLISGLQSEDEADYYCMIWHSGASAVFGGGTKLTVL
notes: also called format I (320); I format with antibody 320

binding result [5]: binds
B8: bispecific NKG2D×CEA antibody in M format, ADI27743 / huA5B7 (bispecific antibody, human IgG1, kappa, L234A L235A)
heavy 1: not shown
light 1: QVQLQQWGAGLLKPSETLSLTCAVYGGSFSGYYWSWIRQPPGKGLEWIGEIDHSGSTNYNPSLKSRVTISVDTSKNQFSLKLSSVTAADTAVYYCARARGPWSFDPWGQGTLVTVSSASVAAPSVFIFPPSDEQLKSGTASVVCLLNNFYPREAKVQWKVDNALQSGNSQESVTEQDSKDSTYSLSSTLTLSKADYEKHKVYACEVTHQGLSSPVTKSFNRGEC
heavy 2: not shown
light 2: EIVLTQSPATLSLSPGERATLSCRASSSVTYIHWYQQKPGQAPRSWIYATSNLASGIPARFSGSGSGTDFTLTISSLEPEDFAVYYCQHWSSKPPTFGQGTKLEIKRTVAAPSVFIFPPSDRKLKSGTASVVCLLNNFYPREAKVQWKVDNALQSGNSQESVTEQDSKDSTYSLSSTLTLSKADYEKHKVYACEVTHQGLSSPVTKSFNRGEC
notes: also called ADI27743 bispecific
